Assay results published in US20050215470A1 (Amgen, published 2005).
Non-standard residues stand in square brackets, D forms with d. No end group written: not given here. Gly(cPent) = N[C@H](C(=O)O)C1CCCC1; Hyp = O=C(O)[C@@H]1C[C@@H](O)CN1; dTic = O=C(O)[C@H]1Cc2ccccc2CN1

Tests used:
[1] = biological target: T1, human bradykinin B1 receptor (human, UniProt P46663 1-353); test: cell-based or functional assay
T1 sequence (looked up): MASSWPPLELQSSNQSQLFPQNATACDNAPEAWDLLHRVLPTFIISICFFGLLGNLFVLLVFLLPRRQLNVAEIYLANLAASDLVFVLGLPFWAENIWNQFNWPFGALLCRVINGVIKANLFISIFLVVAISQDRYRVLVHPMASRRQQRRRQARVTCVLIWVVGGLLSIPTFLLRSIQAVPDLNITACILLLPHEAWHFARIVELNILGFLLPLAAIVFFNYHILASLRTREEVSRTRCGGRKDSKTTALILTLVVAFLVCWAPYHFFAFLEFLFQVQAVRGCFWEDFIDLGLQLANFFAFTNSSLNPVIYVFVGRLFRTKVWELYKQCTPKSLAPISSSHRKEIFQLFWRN

[2] = biological target: T2, human bradykinin B2 receptor (human, UniProt P30411 1-391); test: cell-based or functional assay
T2 sequence (looked up): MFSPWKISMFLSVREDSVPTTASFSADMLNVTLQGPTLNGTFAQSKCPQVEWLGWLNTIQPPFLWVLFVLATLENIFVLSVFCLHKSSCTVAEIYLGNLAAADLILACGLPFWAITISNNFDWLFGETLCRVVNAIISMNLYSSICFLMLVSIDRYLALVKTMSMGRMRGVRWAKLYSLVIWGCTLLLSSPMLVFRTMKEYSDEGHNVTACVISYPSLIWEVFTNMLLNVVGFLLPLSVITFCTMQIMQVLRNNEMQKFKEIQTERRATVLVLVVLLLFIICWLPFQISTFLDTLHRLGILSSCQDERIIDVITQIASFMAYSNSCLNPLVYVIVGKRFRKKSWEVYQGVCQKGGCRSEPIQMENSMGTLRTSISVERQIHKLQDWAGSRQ

[3] = biological target: T1, human bradykinin B1 receptor; test: cell-based or functional assay; remark: listed apart in the source
[4] = biological target: T1, human bradykinin B1 receptor; test: binding affinity (Ki) at the human B1 receptor; assay format not described

Row | Binder | IC50 in the hB1 aequorin assay [1] [nM] | antagonist activity in the hB2 FLIPR assay [2] [µM] | hB1 IC50 (nM), functional potency [3] [nM] | Ki [4] [nM] | fold increase in IC50 in the hB1 aequorin assay against the unconjugated peptide [1] [fold]
1 | KKRP[Hyp]G[Gly(cPent)]S[dTic][Gly(cPent)] [SEQ ID NO:36] | 3 | > 10 |  |  | 
2 | Ac-KKRP[Hyp]G[Gly(cPent)]S[dTic][Gly(cPent)] [SEQ ID NO: 37] |  | > 10 | 1 | 0.8 | 
3 | KKRP[Hyp]G[Gly(cPent)]S[dTic][Gly(cPent)] (also: conjugated to PEG, size, linker and site not given here) [the same peptide (SEQ ID NO:36) conjugated to PEG] |  | > 10 |  |  | ~10
